Common to all, as to details: protein: recombinant; single strand
In data set [1] the target is T1, tau 2N4R full-length monomer, WT (UniProt P10636-8 1-441). The data set is described as follows: BLI; apparent Kd, 2:1 model; kon 1.0e4 M-1 s-1, koff 1.4e-4 s-1; mean of 3; BLI (Octet, AR2G sensors, tau immobilized), nucleic acid 0.13-41 uM; buffer, salt, pH and temperature not given in the material.
Data set [2] addresses T1, tau 2N4R full-length monomer, WT. The data set is described as follows: BLI; apparent Kd, 2:1 model; kon 1.7e3 M-1 s-1, koff 4.2e-4 s-1; mean of 3; BLI (Octet, AR2G sensors, tau immobilized), nucleic acid 0.13-41 uM; buffer, salt, pH and temperature not given in the material.
Data set [3] has the same target. Put plainly: BLI; apparent Kd, 2:1 model; kon 2.8e4 M-1 s-1, koff 3.4e-4 s-1; mean of 3; BLI (Octet, AR2G sensors, tau immobilized), nucleic acid 0.13-41 uM; buffer, salt, pH and temperature not given in the material.

This note sets out measurements from article PMC9364032, “RNA induces unique tau strains and stabilizes Alzheimer’s disease seeds”.

T1 sequence (P10636 other isoform, or with tags, fused parts or gaps): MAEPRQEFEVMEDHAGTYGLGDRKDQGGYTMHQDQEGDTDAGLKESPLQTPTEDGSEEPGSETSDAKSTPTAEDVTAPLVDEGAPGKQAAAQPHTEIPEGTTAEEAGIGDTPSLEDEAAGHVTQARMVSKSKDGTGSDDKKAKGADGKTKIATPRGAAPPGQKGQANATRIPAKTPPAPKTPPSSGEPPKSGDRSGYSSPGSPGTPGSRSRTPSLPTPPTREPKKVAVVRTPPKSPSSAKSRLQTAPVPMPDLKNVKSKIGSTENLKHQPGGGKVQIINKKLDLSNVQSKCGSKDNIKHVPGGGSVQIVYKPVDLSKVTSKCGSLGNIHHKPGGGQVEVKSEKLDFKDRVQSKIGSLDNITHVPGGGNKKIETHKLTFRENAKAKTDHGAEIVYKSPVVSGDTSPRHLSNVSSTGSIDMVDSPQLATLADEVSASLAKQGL

Take AAAAAAAAAAAAAAAAAAAAAAAAAAAAAAAAAAAAAAAA (ssRNA) [PolyA 40-mer RNA]: in data set [1], the Kd was found to be 20 nM.
As to UUUUUUUUUUUUUUUUUUUUUUUUUUUUUUUUUUUUUUUU (ssRNA) [PolyU 40-mer RNA], in data set [2], the Kd was 254 nM.
As to GTTAAGTCCCGAACTAGATGTGACCTAACGGTAAGAGAAT (ssDNA) [ssDNA Seq1 (random 40-mer)], the Kd in data set [3] was found to be 12 nM.
